Common to all, as to assay: native gel or EMSA
Background: A gel shift assay detects complexes by their altered migration in electrophoresis.

Experiment [1] addresses NpHV1‐GFP (Nicoletia phytophila voltage‐gated proton channel 1 with GFP) (Nicoletia phytophila).
The target in experiment [2] is NpHV1‐GFP with C‐terminal StrepTagII (Nicoletia phytophila).
Experiment [3] has as its target NpHV1‐GFP with C‐terminal deca‐His Tag (Nicoletia phytophila).

In general, stoichiometry N refers to a count of units in the complex or per binding partner.

For the substance “NpHV1‐GFP (Nicoletia phytophila voltage‐gated proton channel 1 with GFP) (natural protein)”, the stoichiometry N in experiment [1] was determined as 2. In experiment [2], “NpHV1‐GFP with C‐terminal StrepTagII (natural protein)” returned a stoichiometry N of 2. “NpHV1‐GFP with C‐terminal deca‐His Tag (natural protein)” returned a stoichiometry N in experiment [3] of 2.

The values above are taken from publication PMC7754295.
